No end group written: not given here.
Test: Solubility of VS fragments in water
Type: physicochemical
Protocol: Accordingly, the VS48 is apt to be dissolved in a solvent directly without any assistance of solubilizers (such as a tag protein, TRX) and with no sediments being produced. The solvent can be any solutions comprising similar osmotic pressure to body's liquid of organisms (such as plasma), for example 0.85-0.9% saline. Preferably, the solvent is 0.85-0.90% saline, which is dramatically stable as store and is capable of being stored for one year under 4° C.

Sequence: GPDICGPGTKKVHVIFNYKGKNVLINKDIRCKDDEFTHLYTLIVRPDN (cysteines drawn unpaired) [VS48]
- solubility: 1000 µg/mL
